Assay results: the supplement of paper PMC12042874
± gives the uncertainty stated by the source.

Assay: amyloid nucleation score (Sup35N fusion, yeast selection) (log enrichment); library NNK2; higher = more nucleation; inactive = no reads after selection
How it was run: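 Sup35N fusions to peptides of 20 random codons were expressed in psi-negative yeast, induced 24 hours with 100 μM copper sulfate, and grown 7 days at 30°C on medium lacking adenine and uracil. Input and output plasmid inserts were sequenced by Illumina. The nucleation score is the DiMSum log enrichment of output over input reads, centred on the mode score of non-aggregating sequences. Sequences with under 100 input reads were excluded.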

Substance	amyloid nucleation score
WCKLDWLIWGIEQRP	0.063 ± 1.1
WCLLAIFSYCNDPLVLIARR	2.26 ± 0.12
WCNALFDWMLVAVCGGYYVY	-0.502 ± 0.37
WCSKKPDEFLTINAFRYWED	-0.736 ± 0.34
WCSSKSLADSGRVMGANVYI	-1.02 ± 0.78
WDHLFASFFFLPLMLYGRYY	inactive
WDLLHYFDLF	0.232 ± 0.56
WEIYIGTLTIKWLFTMDRLV	-0.133 ± 0.23
WERMFRPHIFVLFSSGQLSS	5.01 ± 0.052
WFACYMRIAGTGQEVMYVTM	0.424 ± 0.24
WFCVRVA	-0.13 ± 0.37
WFFKTAMWVITT	0.081 ± 1.1
WFMEILFVV	-0.383 ± 0.26
WFMFCNLGLGTPIGMITLRS	-1.16 ± 0.56
WFRRQSLGWVRANGPVMRIS	0.035 ± 0.34
WFRYNCHDFSLTNPWRHHNL	0.507 ± 0.52
WGADSYYMCTKLLGSDCGSN	0.453 ± 0.66
WGCQLRSMQTMTRHR	0.949 ± 0.74
WGEVRLCESMVCCLGRIQGR	4.1 ± 0.063
WGWKYMLEELN	-0.177 ± 0.55
WHFSLTMFRSERVNVLTASD	1.04 ± 0.27
WHNYSYSRGIRRCHQMKHKR	1.46 ± 0.15
WHQVRPARV	1.17 ± 0.3
WHTYSRCSFRKRAGSLVAFP	0.365 ± 0.28
WIMSVGTAKWRDGQPSACRK	3.46 ± 0.13

Substance	amyloid nucleation score
WKALAS	1.74 ± 0.11
WKFSYDFSASASGHHALVNK	3.22 ± 0.13
WKHMSRR	0.639 ± 0.66
WKQEYFG	-0.508 ± 0.63
WLGYEEGG	0.508 ± 0.62
WLNHYAQLIHRARGHVWNMY	-0.685 ± 0.63
WLNLARDWKWKSDINFWKVH	inactive
WLNVDYSYSALRLHNCNGLM	1.64 ± 0.085
WLPLYMFQDQYLLKAPWISS	inactive
WLPMYL	0.194 ± 0.26
WLWNNG	0.485 ± 0.74
WMLIWYGPRLVYIPDLITLP	inactive
WMLWANIDPGDAPYREASAG	4.06 ± 0.05
WNAHN	-0.081 ± 1.1
WNSIYGLAEMQVCWWFGWGC	-0.628 ± 0.41
WNTIYMSTFVIRDFAIYIKY	7.53 ± 0.058
WNVMHI	0.358 ± 0.64
WNYITVDISQLNLPGVAMGW	3.45 ± 0.097
WNYSNRNDYELFRTLK	0.316 ± 0.57
WPFPKSRNRS	-0.076 ± 0.79
WPSLVLGYDMLGVI	-0.025 ± 1.1
WQSAEEWMLPYGVNMVVSWA	0.483 ± 0.46
WRDGSYLFPDVPERPSRNSG	inactive
WRDSVDTGISSGKVGGRCSE	-0.047 ± 0.27
WRLSLGYPVSALQMRMPGTL	2.1 ± 0.22

Substance	amyloid nucleation score
WRMGTPNIRMLC	-0.318 ± 0.38
WRRTTYYGRDRGQVLGNNAG	-0.009 ± 0.36
WRSGGQPCVSGSWSVTNLCV	3.1 ± 0.092
WRVLFQDFRCKINYLGSSSR	inactive
WSANVPQWLLTRPYFDSHHN	inactive
WSEYRFRHIPKLKKCYQVD	0.175 ± 0.32
WSHGHIFIRD	inactive
WSIVGLGSRCWREVASCSTV	0.636 ± 0.49
WSKEFEIGSNHSKSNTRCGR	0.244 ± 0.46
WSKQKVAT	0.814 ± 0.21
WSMSVLVSPHVMFKNAMEVL	0.22 ± 0.28
WSMVTVLRGDRG	0.525 ± 0.54
WSNPTKLFHELAVQLNYTMP	0.903 ± 0.74
WSPLSLVTIELLVQSVIDPF	-0.351 ± 0.48
WSRFSCRT	1.24 ± 0.2
WSTAFSKLNSSRKSD	-0.582 ± 0.76
WSTASSVLIICIQRFF	inactive
WSWGGHAVMFY	-0.424 ± 1.1
WTDSHSKMRNFRPG	-0.259 ± 0.49
WTGGFSLQSVHCNQN	-0.393 ± 1.1
WTLYKTMIMVSSVPFIIKIC	-1.2 ± 0.76
WTNFVGLSALFSMWV	-1.54 ± 1.1
WTRAVKPPV	-0.113 ± 0.34
WTSLSNVFRLTNMYTRVSKW	-0.55 ± 0.76
WTYPLC	-0.744 ± 1.1

Substance	amyloid nucleation score
WVPRRSSLCGAILYLGTKSM	-0.965 ± 0.78
WVYRLMLTMLR	-0.055 ± 0.41
WWHLKTQKSP	-0.09 ± 0.44
WWKGWARTNNVMRAFVVMFY	-0.655 ± 0.44
WWKYLVICLWARMALKGFSL	inactive
WWNTGCVGLMCICTLFSGSR	8.985 ± 0.081
WWRNFD	-0.526 ± 0.76
WWWPSVWTCRM	-0.716 ± 0.78
WYGFFTVLWSKTVRLDFNPM	-1.05 ± 0.54
WYHGSASCEYIGYVYPWHAA	3.58 ± 0.064
WYRPTSYRRKHKGDISLDLG	-0.226 ± 1.1
WYTPRLRMLHLAEKGVRVVV	4.31 ± 0.089
WYVDSLLWEILSALECCVFM	inactive
WYVYSESRIS	-0.267 ± 0.42
WYWHPCTIFL	5.46 ± 0.038
WYYGLTPSQACGGEIPCDFQ	6.523 ± 0.056
YADCVYDREPYTV	inactive
YAFSCFKSNVFWKGTGNRRG	-0.973 ± 0.63
YAGWVGI	-0.387 ± 1.1
YAMCTWSV	1.88 ± 0.13
YAPLSTDPYILVHCIRPRLA	-0.558 ± 1
YASCLSSKLCDEDNPTYW	-0.488 ± 0.39
YAVAEGFVASGYWTAYMPLS	0.487 ± 0.62
YCCGGRIRKSRLINFYVTWS	-0.046 ± 0.5
YCGLVWVSKYSVTRAFRRNV	-0.297 ± 0.39

Substance	amyloid nucleation score
YCHALARLSGFL	0.127 ± 0.27
YCNNYG	-2.65 ± 0.75
YCPDLLHYHL	0.256 ± 0.21
YCTSRVTTRSFISDCLTWIR	1.97 ± 0.069
YCWMRRMKSLPGNMYVLAT	0.25 ± 0.8
YCYARD	-0.172 ± 1.1
YCYVCDVNVYVYLTAIGNKF	7.43 ± 0.085
YDIVVNYLNHHQR	4.88 ± 0.11
YDRKGIQCKRLAGPGQRHRS	0.244 ± 0.39
YDSLYWCGSWYLGLSWISLR	-0.953 ± 0.62
YEFCVAFFDRNNCNREP	-1.6 ± 0.75
YEGYLVSVQLRRMWDVQLGP	3.79 ± 0.054
YEIFGRTNPMMVDKNNAIWV	-0.691 ± 0.42
YENFLLLL	-0.676 ± 0.26
YFCPVPYLAPVLCRLFKVKL	-0.87 ± 1
YFELNLNVKRRGGKWYYSLI	1.16 ± 0.27
YFGFGKSGDYHHSWKRWLPR	-0.511 ± 0.35
YFGSCPREKLGILYKELLVL	-0.563 ± 0.79
YFKFFWNAQMLGCA	inactive
YFKRSGLSICRTGKLALGWH	inactive
YFKYNVYIT	1.3 ± 0.23
YFLALAYRAVPLLWYRPRGL	0.751 ± 0.38
YFMSRRE	-0.04 ± 0.45
YFNSLLPLLSPFYRPNIALL	-0.299 ± 0.56
YFQKGFDVARIHLSFTLVLY	-0.913 ± 1

Substance	amyloid nucleation score
YFSYPC	-1.82 ± 1
YFYCRYYMNRWNYYL	-0.396 ± 0.33
YFYNGWRERARSEQCNHRT	0.441 ± 0.43
YFYPFLCLTKNQLVLSNRRT	4.47 ± 0.073
YGAWCERLKRFSRLVWSDGR	0.312 ± 0.54
YGDCLRLTDSYVSIFTRVPT	0.159 ± 0.3
YGDSWLFCYVE	-1.12 ± 0.64
YGFASFSLYDYYLLVCSMFI	inactive
YGFENLVSILKFVQVNSKCG	1.38 ± 0.085
YGGDLYLIFDLLDRVILL	inactive
YGGPGRNKGPNSCRSTATSV	1.02 ± 0.17
YGHLRVWKIPS	0.655 ± 0.65
YGILCAKLTAVCL	1.44 ± 0.36
YGKADCPSLGVYMRL	2.25 ± 0.15
YGLLGFFGMQCCHNLCMYRG	2.02 ± 0.13
YGMKSRVECVVY	-0.949 ± 0.63
YGMQLFC	3.95 ± 0.082
YGSDALYWLVWVYV	-0.016 ± 0.48
YGSLVYVPAYGEISL	-0.921 ± 0.5
YHEIFF	-0.243 ± 0.4
YHMGDGLDVWGRDRSG	0.901 ± 0.27
YHVPSGTCATR	0.912 ± 0.58
YHYDCYHLLTERKQGELVRT	-0.425 ± 0.35
YIECFTSMQLP	-0.397 ± 0.79
YIESIAECQSVRVGSIVDCF	-1.33 ± 0.75

Substance	amyloid nucleation score
YIFLIMCRWYSATLIRKTSC	-0.584 ± 0.76
YIGPNKFLKQFDCLINFFLT	3.08 ± 0.097
YIGVKKNNSMAGAYGGSLAQ	inactive
YIIGSNEFSEHETDLNGYQT	-0.938 ± 0.62
YIIPGLKFLS	inactive
YIKASKMPAEA	-0.216 ± 0.55
YIKWQI	2.94 ± 0.065
YILLFSVGICPPRSWLIYCP	4.21 ± 0.11
YINKKLGEAKGRDLLVRLGQ	3.63 ± 0.07
YIRLQAIQSEVERSSVPVIK	2.16 ± 0.083
YISSKYYWSTVKCFAFNTFH	-0.594 ± 0.42
YIVYCLFDLLTPNKMWLSPQ	-0.661 ± 0.76
YKLAWARYGCIAVCTMLRFP	0.102 ± 1.1
YKMILGCVVRVGYRILNCIR	0.295 ± 0.5
YKTIIRSVMSELSGSLRQSE	1.26 ± 0.11
YKVLTSPRFKEDPFLYGCWI	-0.353 ± 0.53
YKWSQASTNGHARISSAQQS	2.46 ± 0.11
YKYSCFDRG	inactive
YLCYNALNDFD	-0.445 ± 0.41
YLIDFRTRWIRISKA	-0.695 ± 0.61
YLLFHYGFLN	-1.1 ± 0.63
YLLPSVTSVTY	0.993 ± 0.29
YLLYGWYTMLALHLALREHI	-0.098 ± 0.79
YLNGSSTTVSYRCWAMACSN	-0.448 ± 0.76
